Experimental data reported in paper PMC4066779.

Tested on: GST-DDX6 (human)
Assay: EMSA

Which Kd does the source give for CUG-200 RNA here?
Its Kd is under 0.25 µM.
